Source: US12723105 (BEIJING STARMAB BIOMED TECHNOLOGY, dated 2026)
Where a chain is given by its changes, count along the chain named.

T1: human LAG3 (human, UniProt P18627 29-450, limits assumed)
T1 construct: also called hLAG3
T1 sequence: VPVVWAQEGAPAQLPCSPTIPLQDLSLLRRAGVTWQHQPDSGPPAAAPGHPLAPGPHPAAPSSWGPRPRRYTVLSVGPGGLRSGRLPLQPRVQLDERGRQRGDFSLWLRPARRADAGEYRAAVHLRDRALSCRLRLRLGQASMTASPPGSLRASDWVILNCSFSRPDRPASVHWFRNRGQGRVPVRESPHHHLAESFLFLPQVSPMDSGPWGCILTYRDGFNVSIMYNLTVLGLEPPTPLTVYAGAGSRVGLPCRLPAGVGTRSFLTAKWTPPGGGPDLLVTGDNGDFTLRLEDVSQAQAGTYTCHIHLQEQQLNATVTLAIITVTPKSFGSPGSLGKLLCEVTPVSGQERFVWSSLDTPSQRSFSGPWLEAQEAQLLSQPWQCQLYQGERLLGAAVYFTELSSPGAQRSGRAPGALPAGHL

B1: 33-8 (VHH)
VHH: EVQLMESGGGLVQAGGSLRLSCAASGRTVSTYVMGWFRQAPGKEREFVAEINRIGDTLYNRTSVKGRFTISRDNAKNTVYLQMNSLEPEDTAVYSCAARVIGTSTYNYWGQGTQVTVSS
notes: not shown: C-terminal His-tag
B2: 33-2 (VHH)
VHH: QVQLVESGGGLVQAGGSLRLSCTASANILRTAPMAWYRQAPGKQREFVALITADGTTDYQESVKGRFTTSRDNAKNTVYLQMNSLQSEDTARYFCKVYSYWGQGTQVTVSS
notes: not shown: C-terminal His-tag
B3: 33-13 (VHH)
VHH: QVQLVESGGGLVQAGGSLRLSCAASGSISSINSMNWYRQAPGKQREKVAGINSSGDTNYVDSVKGRFTISRDNAERTTYLQMNNLKPEDTGLYYCNADPRPWPNDVAFGSWGQGTRVTVSS
notes: not shown: C-terminal His-tag
B4: 33-14 (VHH)
VHH: QVQLVESGGGLVQAGDSLKLSCAASGRTSLILAMAWWRQAPGKEREFAGRIWWNNDMTRYSDSVKGRFTISKDNTKNMVYLRMDNLGPEDTAVYYCEADLIGGSRGWGQGTQVTVSS
notes: not shown: C-terminal His-tag
B5: 33-4 (VHH)
VHH: QVQLVESGGGSVQPGGSLRLSCEASGSIFSIAHMGWYRQAPGKQRELVAVISSGGRTNYVDSVKGRFTISRDNAKNTVYLQMNSLKAEDTAVYFCNVAVVGGPRFDYWGQGTQVTVSS
notes: not shown: C-terminal His-tag
B6: 33-1 (VHH)
VHH: QVQLVESGGGLVQTGGSLRLSCAASGGTFTNYAMGWFREAPGKEREFVAGINNNGDTLYNTNSVKGRFTISRDNAKNTVYLHMNSLKLEDTAVYYCAANLKGASWYSANYDYWGQGTQVTVSS
notes: not shown: C-terminal His-tag
B7: hLG9 (VHH)
VHH: EVQLLESGGGLVQPGGSLRLSCAASGSTIDDYPMSWFRQAPGKGREGVAAIDDSDESTYYADSVKGRFTISRDNSKNTLYLQMNSLRAEDTAVYYCARGAIFMIDGVDVFLTYYYDSWGQGTLVTVSS
notes: also called LG9H; not shown: C-terminal His-tag
B8: LG9 (VHH)
VHH: EVQLVESGGGLVQPGGSLRLSCAASGSTIDDYPIGWFRQAPGKEREGVSCIDDSDESTYYADSVKGRFTISRDNAKNTVYLQMNSLKPEDTAVYYCARGAIFMIDGVDVFLTYYYDSWGQGTQVTVSS
notes: not shown: C-terminal His-tag
B9: LG99 (VHH)
VHH: B7 VHH with I101L, Y115F, D116E, S117F
notes: not shown: C-terminal His-tag
B10: LG19 (VHH)
VHH: QVQLVESGGGLVQPGGSLRLSCAASGFTLDYYAIGWFRQAPGKEREGVSCISSSDGSTYYADSVKGRFTISRDNAKNTVYLQMNSLKPEDTAVYYCAADRRGSCRQYDYWGQGTQVTVSS
notes: not shown: C-terminal His-tag
B11: LG2 (VHH)
VHH: QVQLVESGGGLVQPGGSLRLSCAASGTIFSINAMGWYRQAPGKQRELVAIVTFGGSTNYADSVKGRFTISRDNAKNTVYLQMNSLKPEDTAVYYCSARNVQSPVQYHLAVWGQGTLVTVSS
notes: not shown: C-terminal His-tag
B12: LG22 (VHH)
VHH: EVQLVESGGGLVQPGGSLRLSCAASGFTLDYYAIGWFRQAPGKEREGVSCIINSDGSTYYADSVKGRFTISRDNAKNTVYLQMNSLKPEDTAVYYCATDRYSDCRGPYDYWGQGTQVTVSS
notes: not shown: C-terminal His-tag
B13: LG-D8 (VHH)
VHH: QVQLVESGGGLVQPGGSLRLSCAASGFTFGKYAMSWVRQVPDKGLEWVSSISSSGRDTSYADSAKGRFTIFRNNAANTVYLQMDNLKLEDTGVYYCVKCLEVWATREYDGWGQGTQVTVSS
notes: not shown: C-terminal His-tag
B14: LG6 (VHH)
VHH: EVQLVESGGGLVQAGGSLRLSCAVSGSIFSISTMGWYRQAPGKQRELVASITARGSADYADSVKGRFTISRDNAKNTVYLQMSSLKPEDTAVYYCNTDTRSTLYHYSWGQGTQVTVSS
notes: not shown: C-terminal His-tag
B15: A09-08 (VHH)
VHH: QVQLVESGGGLVQAGGSLRLSCAASGYGVNSYALGWFRQAPGKEREFVAAISRSGGNINYADSAKGRFTISRDNFKNTTYLQMSSLKPEDTAVYYCAAHYLLLPSYISTSTNMYNYWGQGTQVTVSS
notes: not shown: C-terminal His-tag
B16: A09-61 (VHH)
VHH: B15 VHH with T109F, S110A, T111S, N112K
notes: not shown: C-terminal His-tag
B17: A09-006 (VHH)
VHH: B15 VHH with Y27I, G28R, V29F, N30F, S31G, Y32S
notes: also called A09-06; not shown: C-terminal His-tag
B18: A09-31 (VHH)
VHH: B15 VHH with S108A, S110A, T111I, N112K
notes: not shown: C-terminal His-tag
B19: A09-10 (VHH)
VHH: QVQLVESGGGLVQAGGSLRLSCAASGGGRTFSNYALGWFRQAPGKEREFVAAISRSGGNINYADSAKGRFTISRDNFKNTTYLQMSSLKPEDTAVYYCAAHYLLLPSYISTSTNMYNYWGQGTQVTVSS
notes: not shown: C-terminal His-tag
B20: hA09-10 (VHH)
VHH: B19 VHH with Q1E, A14P, A66V, F77A, T81V, K89R, P90A
notes: also called humanized A09-10; not shown: C-terminal His-tag
B21: PL11 (VHH)
VHH: QVQLVESGGGLVQAGGSLRLSCAASGRTFNTYDMGWFRRAPGKEREFVAGIDWYTTNTYYADSVKGRFTISRDNAKNTVYLQMRSLKPEDTAVYYCAAGIRSTATITGQADYWGQGAQVTVSS
notes: not shown: C-terminal His-tag
B22: PL17 (VHH)
VHH: B21 VHH with A40T, I51M, Y54N, T56I, T105I, A117T
notes: not shown: C-terminal His-tag
B23: PL2 (VHH)
VHH: QVQLVESGGGLVQAGGSLRLSCAVSGLTLSRYTMAWFRQAPGKEREFVAAIIRNSVSTFHEESVKGRFTISRDNVKNMMYLQMNTLKPEDTAVYYCATNVGPTGGFSLQSVQRYDAWGQGTQVTVSS
notes: not shown: C-terminal His-tag

target: Human CD33 (human, UniProt P20138 18-259); experiment: BLI (Octet) as in Example 1, His-tagged VHH, human CD33
Sequence (P20138 18-259 limits assumed): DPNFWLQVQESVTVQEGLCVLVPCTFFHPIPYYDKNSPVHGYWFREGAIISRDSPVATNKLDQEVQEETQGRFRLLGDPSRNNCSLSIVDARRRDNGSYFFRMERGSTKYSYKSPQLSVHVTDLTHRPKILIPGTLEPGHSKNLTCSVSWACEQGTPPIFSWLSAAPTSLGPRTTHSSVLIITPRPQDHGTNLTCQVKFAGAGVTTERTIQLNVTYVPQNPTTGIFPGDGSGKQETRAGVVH

Binder | Kd | koff | kon
B1 | 0.511 nM | 0.0007 s⁻¹ | 1.1e+06 M⁻¹ s⁻¹
B2 | 0.753 nM | 0.0006 s⁻¹ | 800000 M⁻¹ s⁻¹
B3 | 0.409 nM | 0.0005 s⁻¹ | 1e+06 M⁻¹ s⁻¹
B4 | 0.136 nM | 0.000109 s⁻¹ | 800000 M⁻¹ s⁻¹
B5 | 0.995 nM | 0.0009 s⁻¹ | 900000 M⁻¹ s⁻¹
B6 | 1.01 nM | 0.00081 s⁻¹ | 800000 M⁻¹ s⁻¹

target: T1, human LAG3; experiment: BLI (Octet) as in Examples 1-4, His-tagged VHH, human LAG3

Binder | Kd | koff | kon
B7 | 2.71 nM | 0.000298 s⁻¹ | 110000 M⁻¹ s⁻¹
B8 | 1.77 nM | 0.00011 s⁻¹ | 62100 M⁻¹ s⁻¹
B9 | 0.0792 nM | 2.91e-05 s⁻¹ | 367000 M⁻¹ s⁻¹
B10 | 0.114 nM | 1.09e-05 s⁻¹ | 87000 M⁻¹ s⁻¹
B11 | 630 nM | 0.021 s⁻¹ | 33300 M⁻¹ s⁻¹
B12 | 0.267 nM | 1.14e-05 s⁻¹ | 42700 M⁻¹ s⁻¹
B13 | 2.98 nM | 9.82e-05 s⁻¹ | 33000 M⁻¹ s⁻¹
B14 | 19 nM | 0.000522 s⁻¹ | 27500 M⁻¹ s⁻¹

target: T2, human CD47 (R & D systems) (human, UniProt Q08722 19-139); experiment: BLI (Octet), His-tagged VHH on anti-penta-His tips, soluble human CD47
T2 construct: The Octet analyte was bought (R&D Systems); also called Human CD47 antigen; hCD47

Binder | Kd | koff | kon
B15 | 0.063 nM | 2.1e-06 s⁻¹ | 33300 M⁻¹ s⁻¹
B16 | 1.77 nM | 0.00011 s⁻¹ | 62100 M⁻¹ s⁻¹
B17 | 0.0114 nM | 1.09e-06 s⁻¹ | 87000 M⁻¹ s⁻¹
B18 | 19 nM | 0.000522 s⁻¹ | 27500 M⁻¹ s⁻¹
B19 | 0.0267 nM | 1.14e-06 s⁻¹ | 42700 M⁻¹ s⁻¹
B20 | 0.0276 nM | 1.1e-06 s⁻¹ | 39800 M⁻¹ s⁻¹

target: T3, Human PD-L1 antigen (human, UniProt Q9NZQ7 19-238); experiment: BLI (Octet), His-tagged VHH on anti-penta-His tips, soluble human PD-L1
T3 construct: also called PD-L1 protein
T3 sequence (Q9NZQ7 19-238 limits assumed): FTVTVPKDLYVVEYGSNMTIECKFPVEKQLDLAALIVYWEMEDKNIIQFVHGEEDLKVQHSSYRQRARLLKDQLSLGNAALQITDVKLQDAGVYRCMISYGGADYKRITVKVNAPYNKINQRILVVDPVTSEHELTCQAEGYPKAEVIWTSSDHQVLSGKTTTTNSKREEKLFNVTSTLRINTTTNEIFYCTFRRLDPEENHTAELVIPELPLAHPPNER

Binder | Kd | koff | kon
B21 | 19 nM | 0.000522 s⁻¹ | 27500 M⁻¹ s⁻¹
B22 | 0.0114 nM | 1.09e-06 s⁻¹ | 87000 M⁻¹ s⁻¹
B23 | 630 nM | 0.021 s⁻¹ | 33300 M⁻¹ s⁻¹
